Results reported in US8388937B2, “Specific peptide binding to glypican-3” (Kyungpook National University Industry—Academic Cooperation …, priority 2009, dated 2013).
Where no end group is shown, it is not given here. The star is where a group is joined. FITC = O=C1OC2(c3ccc(O)cc3Oc3cc(O)ccc32)c2ccc(NC(=S)*)cc21

Tests used:
Format in all cases: cell-based
[1] = system: renal cell lines in which GPC-3 protein was not expressed (HEK-293, Cos-7); test: Overlay assay of FITC-labeled peptide on cells in which GPC-3 protein was not expressed
Protocol: (§1) The peptide synthesized in Example 8 was subjected to an overlay assay. First, the human hepatocellular carcinoma cells (HepG2, Huh-7) and the renal cell (HEK293) were cultured to about 1×10^5 in an 8-well chamber slide, followed by washing three times with PBS for three min. In order to prevent non-specific reactions, a reaction was performed in Opti-MEM supplemented with 1% BSA for 1 hour. Again, washing was performed three times with PBS for three min, and then cells were fixed with a fixative containing ethanol and acetone at 2:1 for 3 min. The cells were mounted in Mounting medium supplemented with DAPI. FIGS. 8 through 10 illustrate the results.

GPC-3 protein [2] = molecular target: T1, GPC-3 protein (Homo sapiens, UniProt P51654); test: Overlay assay of FITC-labeled peptide on cell lines in which GPC-3 protein was expressed; set-up: the human hepatocellular carcinoma cell line HepG2 in which GPC-3 protein was expressed; endogenous in cells; host or cells: HepG2, Huh-7, SkMel28 (ATCC)
T1 sequence (P51654 25-554): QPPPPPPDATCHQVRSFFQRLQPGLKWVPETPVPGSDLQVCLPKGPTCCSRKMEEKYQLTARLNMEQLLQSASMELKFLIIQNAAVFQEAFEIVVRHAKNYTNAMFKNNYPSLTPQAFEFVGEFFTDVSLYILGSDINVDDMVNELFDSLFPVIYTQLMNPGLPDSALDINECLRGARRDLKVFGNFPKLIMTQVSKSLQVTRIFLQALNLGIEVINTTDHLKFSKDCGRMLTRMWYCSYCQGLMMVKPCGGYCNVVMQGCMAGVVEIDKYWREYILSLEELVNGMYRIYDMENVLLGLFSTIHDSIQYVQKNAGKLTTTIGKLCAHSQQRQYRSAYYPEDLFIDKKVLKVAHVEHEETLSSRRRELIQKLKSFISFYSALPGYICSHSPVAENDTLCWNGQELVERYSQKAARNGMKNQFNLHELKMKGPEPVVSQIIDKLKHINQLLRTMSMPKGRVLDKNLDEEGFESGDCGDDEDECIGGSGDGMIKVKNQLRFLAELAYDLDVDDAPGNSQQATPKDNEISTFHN
Protocol: as §1

GPC-3 protein [3] = molecular target: T1, GPC-3 protein; test: Overlay assay on HepG2 in competition with equivalent peptide to which FITC was not bound; set-up: the human hepatocellular carcinoma cell line HepG2 in which GPC-3 protein was expressed; endogenous in cells; host or cells: HepG2; settings: competition with unlabeled peptide for bonding to GPC-3 protein
Protocol: as §1
FIG. 9 illustrates image results obtained from reaction of a peptide (FITC-RLNVGGTYFLTTRQ) containing the amino acid sequence of SEQ ID No.1 to the human hepatocellular carcinoma cell line HepG2 in which GPC-3 protein was expressed with an equivalent peptide to which FITC were not bound. […] Because a peptide in which a fluorescent material was not labeled and a fluorescent material labeled peptide were competing for bonding to GPC-3 protein, a fluorescent material labeled peptide became less likely to bind to GPC-3.

Row | fluorescence by FITC (overlay, FIG. 8) (GPC-3 protein [2]; cell lines in which GPC-3 protein was expressed: HepG2, SkMe128, HEK-293 with GPC-3) | fluorescence by FITC (overlay, FIG. 7) (GPC-3 protein [2]; cell lines in which GPC-3 protein was expressed: HepG2, Huh-7, SkMe128, HEK-293 with GPC-3) | fluorescence by FITC in presence of equivalent peptide to which FITC was not bound (FIG. 9) (GPC-3 protein [3]) | Substance | fluorescence by FITC (overlay, FIG. 8) ([1]; renal cell line in which GPC-3 protein was not expressed: Cos-7) | fluorescence by FITC (overlay, FIG. 7) ([1]; renal cell lines in which GPC-3 protein was not expressed: HEK-293, Cos-7)
1 | fluorescence by FITC was observed |  |  | FITC-YFLTTRQ ({FITC}-YFLTTRQ) | fluorescence was not observed | 
2 |  | fluorescence by FITC was observed | fluorescence was not observed | FITC-RLNVGGTYFLTTRQ ({FITC}-RLNVGGTYFLTTRQ) |  | fluorescence was not observed
